Results as given in PMC9600270, “Quantum Dot-Based Screening Identifies F3 Peptide and Reveals Cell Surface Nucleolin as a Therapeutic Target for Rhabdomyosarcoma” (Cancers, 2022).

Molecular target: nucleolin (cell surface, on RD and Rh30 rhabdomyosarcoma cells) (UniProt P19338)
Assay: FACS cell binding of QD conjugate
Settings: overnight 37 C, 5' AminoC6, QD-aptamer 10 nM (Methods; 20 nM in Figure 5b legend) with adherent cells, 12 h/overnight, 5% CO2, conjugates prepared in PBS pH 7.4/1% BSA

nucleolin (cell surface, on RD and Rh30 rhabdomyosarcoma cells), sequence (P19338 whole entry): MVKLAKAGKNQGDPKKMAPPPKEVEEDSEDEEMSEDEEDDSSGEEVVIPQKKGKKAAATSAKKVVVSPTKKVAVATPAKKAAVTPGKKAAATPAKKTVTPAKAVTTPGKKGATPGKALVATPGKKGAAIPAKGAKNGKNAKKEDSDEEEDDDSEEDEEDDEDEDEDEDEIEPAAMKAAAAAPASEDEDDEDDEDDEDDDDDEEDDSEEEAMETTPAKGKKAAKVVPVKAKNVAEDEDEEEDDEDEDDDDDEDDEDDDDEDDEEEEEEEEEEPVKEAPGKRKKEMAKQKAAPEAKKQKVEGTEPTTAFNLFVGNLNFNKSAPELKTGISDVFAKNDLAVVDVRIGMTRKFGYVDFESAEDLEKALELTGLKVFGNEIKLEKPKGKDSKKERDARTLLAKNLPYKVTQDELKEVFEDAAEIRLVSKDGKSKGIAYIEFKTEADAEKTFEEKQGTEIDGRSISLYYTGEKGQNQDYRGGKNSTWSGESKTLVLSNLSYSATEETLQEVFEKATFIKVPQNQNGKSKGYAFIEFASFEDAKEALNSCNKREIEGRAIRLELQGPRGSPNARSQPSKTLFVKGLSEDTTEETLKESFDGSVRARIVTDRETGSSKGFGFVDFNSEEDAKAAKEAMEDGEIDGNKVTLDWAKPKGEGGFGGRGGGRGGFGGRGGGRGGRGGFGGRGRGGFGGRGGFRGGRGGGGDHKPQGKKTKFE

Sequence: TTGGTGGTGGTGGTTGTGGTGGTGGTGG [AS1411 (AGRO100)]
- binding signal (fold over QD-NC-AS1411) (RD cells): 8.8
- binding signal (fold over QD-NC-AS1411) (Rh30 cells): 2.2
